We go through 14 molecules from patent publication US20230212244A1 (IMMATICS BIOTECHNOLOGIES, published 2023).

The target of the assay is T1, HLA-A*02:01 (human).
T1 construct: MHC class I monomer made peptide-receptive by UV cleavage of a UV-sensitive ligand; also called peptide-receptive MHC molecules
Briefly: UV-ligand exchange ELISA (anti-β2m), peptide exchange yield grade. The gist of the method: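 After UV-ligand exchange, peptide–MHC monomers were diluted 100-fold and captured for 1 h at 37 °C on streptavidin-coated plates, then detected with HRP-anti-β2m (2 ug/ml, 1 h, 37 °C) and TMB, A450 nm. Exchange yield was calculated against refolded HLA-A*02:01/MLA-001 standards (15–500 ng/ml).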
For orientation: In an ELISA, binding on a coated surface is turned into a signal by an enzyme label.
SLDDFLATA [peptide SLDDFLATA (SEQ ID NO: 100)] registered a peptide exchange yield of 50 to 75%. Then KILVSLIEV [peptide KILVSLIEV (SEQ ID NO: 102)], with 50 to 75%; and AILDAHIEV [peptide AILDAHIEV (SEQ ID NO: 95)], with at least 75%. Then KLLEVDLDTV [peptide KLLEVDLDTV (SEQ ID NO: 99)], with 50 to 75%; and TVDVATPSV [peptide TVDVATPSV (SEQ ID NO: 91)], with 50 to 75%; and GLSEGHTFQV [peptide GLSEGHTFQV (SEQ ID NO: 101)], with 50 to 75%.

In turn, SLQELRLLL [peptide SLQELRLLL (SEQ ID NO: 93)] gave a peptide exchange yield of at least 75%. In the case of WIDDTSAFV [peptide WIDDTSAFV (SEQ ID NO: 92)] it was 50 to 75%; in that of AMNGKSFSV [peptide AMNGKSFSV (SEQ ID NO: 98)], 20 to 50%. In the case of ALWWGVVTV (also called ALWWGWTV) [peptide ALWWGVVTV (SEQ ID NO: 97)] it was 20 to 50%. In the case of KSMDIVLTV [peptide KSMDIVLTV (SEQ ID NO: 94)] it was 50 to 75%. Regarding FLFGYPKRL [peptide FLFGYPKRL (SEQ ID NO: 103)], the peptide exchange yield fell in the range of 20 to 50%.

For KLYSRLVYV [peptide KLYSRLVYV (SEQ ID NO: 96)], the peptide exchange yield lay in the range of 20 to 50%. Molecule ILDDHLSRV [peptide ILDDHLSRV (SEQ ID NO: 9)] had a peptide exchange yield of 20 to 50%.
